# Test results as given in paper PMC10628242, “Enzymatic β-elimination in natural product O- and C-glycoside deglycosylation” (Nature Communications, 2023).
# Assays:
# [1] = substrate: O=C(CCc1ccc(O)cc1)c1c(O)cc(O)cc1O[C@@H]1O[C@H](CO)[C@@H](O)C(=O)[C@H]1O; experiment: initial rates, HPLC of phloretin release; format: biochemical, human intestinal bacterium PUE; settings: potassium phosphate pH 6.0, 5% DMSO, 37 °C, preincubated with 5 mM MnCl2
# [2] = substrate: O=C1[C@@H](O)[C@H](c2c(O)ccc3c(=O)c(-c4ccc(O)cc4)coc23)O[C@H](CO)[C@H]1O; experiment: initial rates, HPLC of daidzein release; format: biochemical, human intestinal bacterium PUE; settings: potassium phosphate pH 6.0, 5% DMSO, 37 °C, preincubated with 5 mM MnCl2, substrate is a 2/3-keto mixture
# [3] = substrate: O=C(CCc1ccc(O)cc1)c1c(O)cc(O)cc1O[C@@H]1O[C@H](CO)[C@@H](O)C(=O)[C@H]1O; experiment: initial rates, HPLC of phloretin release; format: biochemical, Agrobacterium radiobacter; settings: potassium phosphate pH 6.0, 5% DMSO, 37 °C, printed kcat is 10-fold above the one implied by printed kcat/Km (1.2 × 10^6 M^−1s^−1) and by 235 U/mg
# [4] = substrate: O=C(CCc1ccc(O)cc1)c1c(O)cc(O)cc1O[C@@H]1O[C@H](COP(=O)(O)O)[C@@H](O)[C@H](O)[C@H]1O; experiment: initial rates, HPLC of phloretin release; format: biochemical, Bacillus subtilis; settings: HEPES pH 7.5, 0.5 mM MnSO4, 0.3 mM NAD+, 37 °C
# [5] = substrate: O=C(CCc1ccc(O)cc1)c1c(O)cc(O)cc1O[C@@H]1O[C@H](COP(=O)(O)O)[C@@H](O)[C@H](O)[C@H]1O; experiment: initial rates, HPLC of phloretin release; format: biochemical, Thermotoga maritima; settings: HEPES pH 7.5, 0.5 mM MnSO4, 0.3 mM NAD+, 37 °C
protein,measurement,setting,value
"PuCGE (human intestinal bacterium PUE) (protein, heterodimer alpha (39,205 Da) + beta (18,313 Da), co-expressed from pET-Duet-1 in E. coli; N-terminal Strep-tag II; Mn2+ enzyme) chain 1: MSNVKLGVTLYSFSTEYCQGKMTLEDCIRTAKELGAAGFEIVATQMIPSYPYVSDKFLGELKSICQYYDMEPVCYGANCDRGLRGDRNLTGDEMVAMAVRDIKNAHKMGCKVVREQWLMGPENFAKLAPFAEHYGVKVGIEVHNPETPITQSTKDYIAAIDKTGSKYLGLIPDFGCFANKPNKMNWDNALADGADKKLLEMARDMKYDNVPYDEAVKRLTAAGAKKVELTTMRDMYTFLTFKKDVSAELQGLKDMIPYCIHMHGKYHYMYENLQEAAIPYDDIMKIVSESDYDGYIVSEYEEYNSGHSIEMLRRHLKMMHNFVD chain 2: MGLALRLNFVDVVCDDSLKNFWANGKKIGYQFDVRLSYYRGHFLSTIDEIGVKVDGVDVPAENISLCLDGKEYGVAELHDLVNVFWPIIEPATIKVFQPGGLSEEEHDVDFTLYFRSPYMALSETEYQSIDSCGSKRLNVQN",Km,[1],0.6 (±0.1) mM
same,kcat,[1],1.20 (±0.05) s^−1
same,Km,[2],0.8 (±0.1) mM
same,kcat,[2],18 (±0.4) s^−1
"AtOGE (Agrobacterium radiobacter) (protein, N-terminal Strep-tag II kept in assays (cut by TEV only for crystallization); E. coli Lemo21(DE3); 29,895 Da subunit; Mn2+ enzyme; dimer in crystal) KLDDSKTLPIAAQMYTLRNAGTLEEQLAILNRAGVSAVETVDMQKVSASELNALLEKHKIKVISSHVPIDKLRGNLDEVITEQKAVGNPVVTVPFLKPEDRPKDAAGWTAFGKELGGYADKLSAAGLSMAYHNHDFEMVKFDGKTALELLLDAAGPKLQSELDVAWVARSGNDPAEFLGTLNGRVFAIHAKDDAPAGTAENERGFATIGTGVLDWKTILPAAKHAGAQWFILEHDLPLDAEAVVTKGNAFLSERLPTIQ",Km,[3],0.10 (±0.01) mM
"GlvA (Bacillus subtilis subsp. subtilis str. 168) (protein, N-terminal Strep-tag II; E. coli; 51,960 Da; GH4, Mn2+ and NAD+ dependent) MKKKSFSIVIAGGGSTFTPGIVLMLLDHLEEFPIRKLKLYDNDKERQDRIAGACDVFIREKAPDIEFAATTDPEEAFTDVDFVMAHIRVGKYAMRALDEQIPLKYGVVGQETCGPGGIAYGMRSIGGVLEILDYMEKYSPDAWMLNYSNPAAIVAEATRRLRPNSKILNICDMPVGIEDRMAQILGLSSRKEMKVRYYGLNHFGWWTSIQDQEGNDLMPKLKEHVSQYGYIPKTEAEAVEASWNDTFAKARDVQAADPDTLPNTYLQYYLFPDDMVKKSNPNHTRANEVMEGREAFIFSQCDMITREQSSENSEIKIDDHASYIVDLARAIAYNTGERMLLIVENNGAIANFDPTAMVEVPCIVGSNGPEPITVGTIPQFQKGLMEQQVSVEKLTVEAWAEKSFQKLWQALILSKTVPNARVARLILEDLVEANKDFWPELDQSPTRIS",Km,[4],100 µM
same,kcat,[4],~0.02 s⁻¹
"BglT (Thermotoga maritima MSB8) (protein, N-terminal Strep-tag II; E. coli; 48,997 Da; GH4, Mn2+ and NAD+ dependent) MRIAVIGGGSSYTPELVKGLLDISEDVRIDEVIFYDIDEEKQKIVVDFVKRLVKDRFKVLISDTFEGAVVDAKYVIFQFRPGGLKGRENDEGIPLKYGLIGQETTGVGGFSAALRAFPIVEEYVDTVRKTSNATIVNFTNPSGHITEFVRNYLEYEKFIGLCNVPINFIREIAEMFSARLEDVFLKYYGLNHLSFIEKVFVKGEDVTEKVFENLKLKLSNIPDEDFPTWFYDSVRLIVNPYLRYYLMEKKMFKKISTHELRAREVMKIEKELFEKYRTAVEIPEELTKRGGSMYSTAAAHLIRDLETDEGKIHIVNTRNNGSIENLPDDYVLEIPCYVRSGRVHTLSQGKGDHFALSFIHAVKMYERLTIEAYLKRSKKLALKALLSHPLGPDVEDAKDLLEEILEANREYVKLG",Km,[5],300 µM
same,kcat,[5],~0.01 s⁻¹
